Assay results taken from patent publication US20180208675A1 (Novo Nordisk, published 2018).
Where a chain is given by its changes, count along the chain named. Values belong to the binder of their own block, whether it stands above or below them.

Assays:
[1] = target: T1, human TFPI alpha (full-length TFPIα) (human, UniProt P10646 29-304); test: SPR (Biacore T200), Fab captured on Human Fab Binder, TFPIα in solution, 1:1 fit
T1 construct: Analyte in SPR and added to plasma (2 or 20 nM) in thrombin generation assays; also called human TFPIα
Source text: (§1) Binding interaction analysis was obtained by Surface Plasmon Resonance in a Biacore T200 instrument. Human Fab Binder (Human Fab Capture Kit, GE Healthcare) was immobilized to a series S CM4 sensor chip (GE Healthcare) in flow-cells 1-4 at 10000 response units (RU) using the amine coupling protocol available within the Biacore T-200 control software (GE Healthcare) and the reagents provided with the Amine Coupling Kit (GE Healthcare).The relevant Fab fragment or Fab-Fab conjugate was captured in flow-cell 2, 3 or 4 at a fixed concentration. Different concentrations of TFPI were tested by diluting TFPI in the running buffer (10 mM Hepes, pH 7.4, 300 mM NaCl, 5 mM CaCl₂, 0.05% Surfactant P20, 1 mg/ml BSA). Each sample was assayed using 300 seconds of contact time followed by 600 seconds of dissociation time at 50 μl/min flow rate. A buffer blank was also assayed. The sensor surface was regenerated with 10 mM Glycine pH 2.1 with two cycles each of 30 seconds at 50 μl/min flow rate.
(§2) Biacore T200 Evaluation software was used to analyse the data. Determination of binding constants (kₒₙ, koff, KD) was obtained assuming a 1:1 interaction of TFPI and the Fab variant or Fab-Fab conjugate of interest.

[2] = target: T1, human TFPI alpha (full-length TFPIα); test: cell-based or functional assay
[3] = target: T1, human TFPI alpha (full-length TFPIα); test: SPR (Biacore T200), Fab-Fab conjugate captured on Human Fab Binder, TFPIα in solution, 1:1 fit
Source text: as §1, §2

Kd [1]: 0.11 nM
koff [1]: 0.00057 s⁻¹
kon [1]: 5e+06 M⁻¹ s⁻¹
B1: Fab 0089 (Fab fragment of mAb 4F110) (Fab, V domains shown)
VH: QVQLQQSGAELVKPGASVKLSCKASGYTFISYYMYWVKQRPGQGLEWIGEINPSNGDTNLNEKFKSKATLTVDKSSSTVYMQLSSLTSEDSAVYYCTRWDRFDGFVYWGQGTLVTVSA
VL: ETTVTQSPASLSMAIGGKVTIRCIISTNIDDDINWYQQKPGEPPKLLISEGNTLRPGVPSRFSSSGYGTDFVFTIENMLSEDVADYYCLQSDDLPYTFGGGTKLEIKR
notes: Chimeric mouse/human Fab; HC truncated after the hinge cysteine; KPI-3 specific

lag time (min), 200 nM mAb (2 x 100 nM), FVIII-neutralised plasma + 20 nM TFPIα [2]: 0 min
thrombin peak (nM), 200 nM mAb (2 x 100 nM), FVIII-neutralised plasma + 20 nM TFPIα [2]: 0 nM
ttPeak (min), 200 nM mAb (2 x 100 nM), FVIII-neutralised plasma + 20 nM TFPIα [2]: 0 min
B2: mAb 1F91 (antibody, V domains shown)
VH: DVQLQESGPGLVKPSQSLSLTCTVSGYSITSDYAWNWIRQFPGNKLEWMGYISYSGSTSYNPSLKSRISITRDTSKNQFFLQLNSVTTEDTATYYCARWAYDGPWGQGTLVTVSA
VL: QIVLSQSPALLSASPGEKVTMTCRASSSVSHMHWYQQKPGSSPKPWIYATSNLASGVPARFSGSGSGTSYSLTITRVEAEDAATYYCQQWSSNPFTFGSGTKLEIKR

lag time (min), 200 nM mAb (2 x 100 nM), FVIII-neutralised plasma + 20 nM TFPIα [2]: 5.8 min
thrombin peak (nM), 200 nM mAb (2 x 100 nM), FVIII-neutralised plasma + 20 nM TFPIα [2]: 20.9 nM
ttPeak (min), 200 nM mAb (2 x 100 nM), FVIII-neutralised plasma + 20 nM TFPIα [2]: 14.6 min
B3: mAb 2F3 (antibody, V domains shown)
VH: QVQLKQSGPGLVQPSQSLSITCTVSGFSLSSYGVHWVRQSPGKGLEWLGVIWRGGSTDFNAAFMSRVSFTKDNSKSQVFFKMNSLQADDTAIYYCAKNSHGNYVGYAMDYWGQGTSVTVSS
VL: DIVMTQSQKFMSTTVGDKVSIPCKASENVGAAVAWYQQKPGQSPTLLIYSASNRYTGIPDRFTGSGSGTDFTLTIRTVQSEDLADYFCQQYTNYPTFGGGTKLEIKR

lag time (min), 200 nM mAb (2 x 100 nM), FVIII-neutralised plasma + 20 nM TFPIα [2]: 9 min
B4: mAb 2F45 (antibody, V domains shown)
VH: B3 VH with T21S, S30T, S31G, V37I, T57I, F59Y, V67L, F69I
VL: DIVMTQSQKFMSTTVGDRVSITCKASQNVGTAVAWYQQKPGQSPELLIYSASNRYTRVPDRFTGSGSGTDFTLTISNMQSEDLADYFCQQYTSYPTFGGGTKLEIKR

lag time (min), 200 nM mAb (2 x 100 nM), FVIII-neutralised plasma + 20 nM TFPIα [2]: 5.1 min
thrombin peak (nM), 200 nM mAb (2 x 100 nM), FVIII-neutralised plasma + 20 nM TFPIα [2]: 23.7 nM
ttPeak (min), 200 nM mAb (2 x 100 nM), FVIII-neutralised plasma + 20 nM TFPIα [2]: 13.6 min
B5: mAb 2F22 (antibody, V domains shown)
VH: B3 VH with S30T, S31N, G49A, T57I, F59Y, V67L, F69I
VL: B4 VL with D1G, N28S, T31P, E45K, R57G, T69A, M78L, Q79H

Kd [3]: 0.036 nM
koff [3]: 0.00022 s⁻¹
kon [3]: 6.2e+06 M⁻¹ s⁻¹
B6: Fab 0094-Fab 0089 conjugate 9004 (bispecific antibody)
heavy 1: EVQLVESGGGLVKPGGSLRLSCAASGFTFSNYAMSWVRQAPGKGLEWVSTISRSGSYSYYPDSVKGRFTISRDNAKNSLYLQMNSLRAEDTAVYYCARLGGYDEGDAMDSWGQGTTVTVSSASTKGPSVFPLAPCSRSTSESTAALGCLVKDYFPEPVTVSWNSGALTSGVHTFPAVLQSSGLYSLSSVVTVPSSSLGTKTYTCNVDHKPSNTKVDKRVESKYGPPC
light 1: DIVMTQTPLSLSVTPGQPASISCKSSQSLLESDGKTYLNWYLQKPGQSPQLLIYLVSILDSGVPDRFSGSGSGTDFTLKISRVEAEDVGVYYCLQATHFPQTFGGGTKVEIKRTVAAPSVFIFPPSDEQLKSGTASVVCLLNNFYPREAKVQWKVDNALQSGNSQESVTEQDSKDSTYSLSSTLTLSKADYEKHKVYACEVTHQGLSSPVTKSFNRGEC
heavy 2: QVQLQQSGAELVKPGASVKLSCKASGYTFISYYMYWVKQRPGQGLEWIGEINPSNGDTNLNEKFKSKATLTVDKSSSTVYMQLSSLTSEDSAVYYCTRWDRFDGFVYWGQGTLVTVSAASTKGPSVFPLAPCSRSTSESTAALGCLVKDYFPEPVTVSWNSGALTSGVHTFPAVLQSSGLYSLSSVVTVPSSSLGTKTYTCNVDHKPSNTKVDKRVESKYGPPC
light 2: ETTVTQSPASLSMAIGGKVTIRCIISTNIDDDINWYQQKPGEPPKLLISEGNTLRPGVPSRFSSSGYGTDFVFTIENMLSEDVADYYCLQSDDLPYTFGGGTKLEIKRTVAAPSVFIFPPSDEQLKSGTASVVCLLNNFYPREAKVQWKVDNALQSGNSQESVTEQDSKDSTYSLSSTLTLSKADYEKHKVYACEVTHQGLSSPVTKSFNRGEC
modifications: C-terminal cysteine coupled through the bis-maleimide linker to the Fab 0094 heavy chain; C-terminal cysteine coupled through 1,16-N,N'-bis(maleimido)-4,13-diaza-7,10-dioxa-3,14-dioxohexadecane to the C-terminal cysteine of the Fab 0089 heavy chain
notes: KPI-2/KPI-3

Kd [3]: 0.0053 nM
koff [3]: 3.8e-05 s⁻¹
kon [3]: 7.1e+06 M⁻¹ s⁻¹
B7: Fab 0088-Fab 0089 conjugate 9002 (bispecific antibody)
heavy 1: B6 heavy 1 with A40T, G42E, G44R, S49A, Y60F, K65Q
light 1: B6 light 1
heavy 2: B6 heavy 2
light 2: B6 light 2
modifications: C-terminal cysteine coupled through the bis-maleimide linker to the Fab 0088 heavy chain; C-terminal cysteine coupled through 1,16-N,N'-bis(maleimido)-4,13-diaza-7,10-dioxa-3,14-dioxohexadecane to the C-terminal cysteine of the Fab 0089 heavy chain
notes: KPI-2/KPI-3
